Data reported in article PMC8131568, “A noncanonical heme oxygenase specific for the degradation of c-type heme” (The Journal of Biological Chemistry, 2021).

Biological target: the molecule itself
Assay: crystal structure; Pden_1323 alone at 12 mg/ml; sitting-drop vapor diffusion; 14% glycerol, 18 to 25% PEG 4000, 0.3 M sodium acetate, 0.1 M Tris pH 8.8

B1: Pden_1323 (enzyme, Paracoccus denitrificans PD1222)
chain: MKIDPIRETTDEARALARQLLEAARHASLGTLDPETGVPLVTRIALQTDADGVPLALLAGLAAHARALAVDPRAGLLIAAEAAKGDAMTHARLSILGRAVPAEPDENRRARWLERDPKAKVYLDLPDFRFWRIEPVSGLLNAGFGQAFKLTASDMLKPPAE
notes: Pden_1323, product of the pden_1323 gene of Paracoccus denitrificans PD1222 (opp gene cluster), codon-optimized and cloned NdeI/XhoI into pET-28b(+); HugZ homolog; also called c-type heme oxygenase; CHO; source: Superdex 200 for crystallography; not shown: His-tag, N-terminal, cleaved
binding result: binds
